From patent US10919943B2, “Mutant proteins enabling agrochemical control of plant gene expression” (The Regents of the University of California, priority 2016, dated 2021)

T1: PYR1 (Arabidopsis thaliana, UniProt O49686)
T1 construct: expressed in transfected cells; host or cells: S. cerevisiae strain Y190
T1 sequence (O49686 1-191): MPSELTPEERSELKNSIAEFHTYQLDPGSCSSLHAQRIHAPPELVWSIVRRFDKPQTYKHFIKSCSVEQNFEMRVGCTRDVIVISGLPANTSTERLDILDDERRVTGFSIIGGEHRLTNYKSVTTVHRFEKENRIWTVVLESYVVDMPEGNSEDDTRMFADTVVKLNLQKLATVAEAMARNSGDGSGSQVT


target: T1, PYR1; assay: Yeast two hybrid of pACT-HAB1 site saturation mutants with pBD-PYR1 on 10 μM ABA, β-galactosidase staining; format: cell-based; set-up: key: x: Mutations in HAB1 that disrupt HAB1 interaction with PYR1; settings: S. cerevisiae Y190, 10 μM ABA; dead = lack of detectable staining in comparison to wild type control
Source text: To systematically define mutations in HAB1 that disrupt its binding to PYR1, we used site saturation mutagenesis to create a collection all possible single amino acid substitutions in 20 residues lining the PYR1 binding interface, and then assayed the ability of each mutant to bind PYR1 using the yeast two hybrid assay described above. We targeted the following residues for mutagenesis: R199, 5200, E201, E203, H245, G246, G247, S322, E323, T324, K381, I383, Q384, W385, Q386, R389, F391, G392, V393, and Y404. To create the collection of mutations, mutagenic “NNK” site directed mutagenesis primers were synthesized for each of the 20 positions and the primers used in QuickChange site-directed mutagenesis reactions using a previously described pACT-HAB1 template (Park et al., 2009). We note that this clone uses a HAB1 cDNA lacking its three N-terminal amino acids. The reaction products were digested with DpnI, and transformed into competent Escherichia coli DH5α cells and plasmid DNA for 96 colonies per site was isolated using Bioneer AccuPrep® Plasmid Mini Extraction Kit (Alameda, Calif.) and sequenced to identify mutants. This process identified most of the 19 desired mutations per target site; the remaining mutations were constructed directly using specific mutagenic primers. To interrogate the effects of the mutations on PYR1-HAB1 interactions, the mutant clones were individually transformed into S. cerevisiae strain Y190 containing pBD-PYR1 (Park et al., 2009). Yeast transformants were selected for the presence of plasmids on selective SD (-Leu,-Trp) plates and then spotted onto SD (-Leu,-Trp) agar plates supplemented with 10 μM ABA. After incubating the test plates at 30° C. for two days, the colonies were lysed with chloroform and stained to reveal […] expression levels. “Dead” mutants were defined by lack of detectable staining in comparison to a wild type pBD-PYR1/pACT-HAB1 control. This screening effort defined 163 mutations that disrupt the ABA-induced PYR1/HAB1 interaction (Table 2).

Molecule	Mutations in HAB1 that disrupt HAB1 interaction with PYR1
R389Q: HAB1 mutant (protein, UniProt Q9CAJ0 23-511, looked up, variant R389Q) Protein phosphatase 2C 16: SPVEITQLKNVTDAADLLSDSENQSFCNGGTECTMEDVSELEEVGEQDLLKTLSDTRSGSSNVFDEDDVLSVVEDNSAVISEGLLVVDAGSELSLSNTAMEIDNGRVLATAIIVGESSIEQVPTAEVLIAGVNQDTNTSEVVIRLPDENSNHLVKGRSVYELDCIPLWGTVSIQGNRSEMEDAFAVSPHFLKLPIKMLMGDHEGMSPSLTHLTGHFFGVYDGHGGHKVADYCRDRLHFALAEEIERIKDELCKRNTGEGRQVQWDKVFTSCFLTVDGEIEGKIGRAVVGSSDKVLEAVASETVGSTAVVALVCSSHIVVSNCGDSRAVLFRGKEAMPLSVDHKPDREDEYARIENAGGKVIQWQGAQVFGVLAMSRSIGDRYLKPYVIPEPEVTFMPRSREDECLILASDGLWDVMNNQEVCEIARRRILMWHKKNGAPPLAERGKGIDPACQAAADYLSMLALQKGSKDNISIIVIDLKAQRKFKTRT	x
R389D: HAB1 mutant (protein, UniProt Q9CAJ0 23-511, looked up, variant R389D) Protein phosphatase 2C 16: SPVEITQLKNVTDAADLLSDSENQSFCNGGTECTMEDVSELEEVGEQDLLKTLSDTRSGSSNVFDEDDVLSVVEDNSAVISEGLLVVDAGSELSLSNTAMEIDNGRVLATAIIVGESSIEQVPTAEVLIAGVNQDTNTSEVVIRLPDENSNHLVKGRSVYELDCIPLWGTVSIQGNRSEMEDAFAVSPHFLKLPIKMLMGDHEGMSPSLTHLTGHFFGVYDGHGGHKVADYCRDRLHFALAEEIERIKDELCKRNTGEGRQVQWDKVFTSCFLTVDGEIEGKIGRAVVGSSDKVLEAVASETVGSTAVVALVCSSHIVVSNCGDSRAVLFRGKEAMPLSVDHKPDREDEYARIENAGGKVIQWQGADVFGVLAMSRSIGDRYLKPYVIPEPEVTFMPRSREDECLILASDGLWDVMNNQEVCEIARRRILMWHKKNGAPPLAERGKGIDPACQAAADYLSMLALQKGSKDNISIIVIDLKAQRKFKTRT	x
R389E: HAB1 mutant (protein, UniProt Q9CAJ0 23-511, looked up, variant R389E) Protein phosphatase 2C 16: SPVEITQLKNVTDAADLLSDSENQSFCNGGTECTMEDVSELEEVGEQDLLKTLSDTRSGSSNVFDEDDVLSVVEDNSAVISEGLLVVDAGSELSLSNTAMEIDNGRVLATAIIVGESSIEQVPTAEVLIAGVNQDTNTSEVVIRLPDENSNHLVKGRSVYELDCIPLWGTVSIQGNRSEMEDAFAVSPHFLKLPIKMLMGDHEGMSPSLTHLTGHFFGVYDGHGGHKVADYCRDRLHFALAEEIERIKDELCKRNTGEGRQVQWDKVFTSCFLTVDGEIEGKIGRAVVGSSDKVLEAVASETVGSTAVVALVCSSHIVVSNCGDSRAVLFRGKEAMPLSVDHKPDREDEYARIENAGGKVIQWQGAEVFGVLAMSRSIGDRYLKPYVIPEPEVTFMPRSREDECLILASDGLWDVMNNQEVCEIARRRILMWHKKNGAPPLAERGKGIDPACQAAADYLSMLALQKGSKDNISIIVIDLKAQRKFKTRT	x
R389R: HAB1, x printed at the wild-type residue; see doubts (protein, UniProt Q9CAJ0 23-511, looked up) Protein phosphatase 2C 16: SPVEITQLKNVTDAADLLSDSENQSFCNGGTECTMEDVSELEEVGEQDLLKTLSDTRSGSSNVFDEDDVLSVVEDNSAVISEGLLVVDAGSELSLSNTAMEIDNGRVLATAIIVGESSIEQVPTAEVLIAGVNQDTNTSEVVIRLPDENSNHLVKGRSVYELDCIPLWGTVSIQGNRSEMEDAFAVSPHFLKLPIKMLMGDHEGMSPSLTHLTGHFFGVYDGHGGHKVADYCRDRLHFALAEEIERIKDELCKRNTGEGRQVQWDKVFTSCFLTVDGEIEGKIGRAVVGSSDKVLEAVASETVGSTAVVALVCSSHIVVSNCGDSRAVLFRGKEAMPLSVDHKPDREDEYARIENAGGKVIQWQGARVFGVLAMSRSIGDRYLKPYVIPEPEVTFMPRSREDECLILASDGLWDVMNNQEVCEIARRRILMWHKKNGAPPLAERGKGIDPACQAAADYLSMLALQKGSKDNISIIVIDLKAQRKFKTRT	x
R389C: HAB1 mutant (protein, UniProt Q9CAJ0 23-511, looked up, variant R389C) Protein phosphatase 2C 16: SPVEITQLKNVTDAADLLSDSENQSFCNGGTECTMEDVSELEEVGEQDLLKTLSDTRSGSSNVFDEDDVLSVVEDNSAVISEGLLVVDAGSELSLSNTAMEIDNGRVLATAIIVGESSIEQVPTAEVLIAGVNQDTNTSEVVIRLPDENSNHLVKGRSVYELDCIPLWGTVSIQGNRSEMEDAFAVSPHFLKLPIKMLMGDHEGMSPSLTHLTGHFFGVYDGHGGHKVADYCRDRLHFALAEEIERIKDELCKRNTGEGRQVQWDKVFTSCFLTVDGEIEGKIGRAVVGSSDKVLEAVASETVGSTAVVALVCSSHIVVSNCGDSRAVLFRGKEAMPLSVDHKPDREDEYARIENAGGKVIQWQGACVFGVLAMSRSIGDRYLKPYVIPEPEVTFMPRSREDECLILASDGLWDVMNNQEVCEIARRRILMWHKKNGAPPLAERGKGIDPACQAAADYLSMLALQKGSKDNISIIVIDLKAQRKFKTRT	x

Second part, the molecule after the results:

Mutations in HAB1 that disrupt HAB1 interaction with PYR1	Molecule
x	R389Y: HAB1 mutant (protein, UniProt Q9CAJ0 23-511, looked up, variant R389Y) Protein phosphatase 2C 16: SPVEITQLKNVTDAADLLSDSENQSFCNGGTECTMEDVSELEEVGEQDLLKTLSDTRSGSSNVFDEDDVLSVVEDNSAVISEGLLVVDAGSELSLSNTAMEIDNGRVLATAIIVGESSIEQVPTAEVLIAGVNQDTNTSEVVIRLPDENSNHLVKGRSVYELDCIPLWGTVSIQGNRSEMEDAFAVSPHFLKLPIKMLMGDHEGMSPSLTHLTGHFFGVYDGHGGHKVADYCRDRLHFALAEEIERIKDELCKRNTGEGRQVQWDKVFTSCFLTVDGEIEGKIGRAVVGSSDKVLEAVASETVGSTAVVALVCSSHIVVSNCGDSRAVLFRGKEAMPLSVDHKPDREDEYARIENAGGKVIQWQGAYVFGVLAMSRSIGDRYLKPYVIPEPEVTFMPRSREDECLILASDGLWDVMNNQEVCEIARRRILMWHKKNGAPPLAERGKGIDPACQAAADYLSMLALQKGSKDNISIIVIDLKAQRKFKTRT
x	R389T: HAB1 mutant (protein, UniProt Q9CAJ0 23-511, looked up, variant R389T) Protein phosphatase 2C 16: SPVEITQLKNVTDAADLLSDSENQSFCNGGTECTMEDVSELEEVGEQDLLKTLSDTRSGSSNVFDEDDVLSVVEDNSAVISEGLLVVDAGSELSLSNTAMEIDNGRVLATAIIVGESSIEQVPTAEVLIAGVNQDTNTSEVVIRLPDENSNHLVKGRSVYELDCIPLWGTVSIQGNRSEMEDAFAVSPHFLKLPIKMLMGDHEGMSPSLTHLTGHFFGVYDGHGGHKVADYCRDRLHFALAEEIERIKDELCKRNTGEGRQVQWDKVFTSCFLTVDGEIEGKIGRAVVGSSDKVLEAVASETVGSTAVVALVCSSHIVVSNCGDSRAVLFRGKEAMPLSVDHKPDREDEYARIENAGGKVIQWQGATVFGVLAMSRSIGDRYLKPYVIPEPEVTFMPRSREDECLILASDGLWDVMNNQEVCEIARRRILMWHKKNGAPPLAERGKGIDPACQAAADYLSMLALQKGSKDNISIIVIDLKAQRKFKTRT
x	R389V: HAB1 mutant (protein, UniProt Q9CAJ0 23-511, looked up, variant R389V) Protein phosphatase 2C 16: SPVEITQLKNVTDAADLLSDSENQSFCNGGTECTMEDVSELEEVGEQDLLKTLSDTRSGSSNVFDEDDVLSVVEDNSAVISEGLLVVDAGSELSLSNTAMEIDNGRVLATAIIVGESSIEQVPTAEVLIAGVNQDTNTSEVVIRLPDENSNHLVKGRSVYELDCIPLWGTVSIQGNRSEMEDAFAVSPHFLKLPIKMLMGDHEGMSPSLTHLTGHFFGVYDGHGGHKVADYCRDRLHFALAEEIERIKDELCKRNTGEGRQVQWDKVFTSCFLTVDGEIEGKIGRAVVGSSDKVLEAVASETVGSTAVVALVCSSHIVVSNCGDSRAVLFRGKEAMPLSVDHKPDREDEYARIENAGGKVIQWQGAVVFGVLAMSRSIGDRYLKPYVIPEPEVTFMPRSREDECLILASDGLWDVMNNQEVCEIARRRILMWHKKNGAPPLAERGKGIDPACQAAADYLSMLALQKGSKDNISIIVIDLKAQRKFKTRT
x	R389W: HAB1 mutant (protein, UniProt Q9CAJ0 23-511, looked up, variant R389W) Protein phosphatase 2C 16: SPVEITQLKNVTDAADLLSDSENQSFCNGGTECTMEDVSELEEVGEQDLLKTLSDTRSGSSNVFDEDDVLSVVEDNSAVISEGLLVVDAGSELSLSNTAMEIDNGRVLATAIIVGESSIEQVPTAEVLIAGVNQDTNTSEVVIRLPDENSNHLVKGRSVYELDCIPLWGTVSIQGNRSEMEDAFAVSPHFLKLPIKMLMGDHEGMSPSLTHLTGHFFGVYDGHGGHKVADYCRDRLHFALAEEIERIKDELCKRNTGEGRQVQWDKVFTSCFLTVDGEIEGKIGRAVVGSSDKVLEAVASETVGSTAVVALVCSSHIVVSNCGDSRAVLFRGKEAMPLSVDHKPDREDEYARIENAGGKVIQWQGAWVFGVLAMSRSIGDRYLKPYVIPEPEVTFMPRSREDECLILASDGLWDVMNNQEVCEIARRRILMWHKKNGAPPLAERGKGIDPACQAAADYLSMLALQKGSKDNISIIVIDLKAQRKFKTRT
